T1: recombinant SNAP-tagged NLRP1^DR purified from bacteria
T1 chain: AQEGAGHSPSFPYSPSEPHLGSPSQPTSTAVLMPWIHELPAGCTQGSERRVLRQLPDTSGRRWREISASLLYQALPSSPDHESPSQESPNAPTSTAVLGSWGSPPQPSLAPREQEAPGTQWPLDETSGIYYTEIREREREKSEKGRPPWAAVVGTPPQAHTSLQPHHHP


Molecular target: T1, recombinant SNAP-tagged NLRP1^DR …

Row | Protein | phosphorylation in a recombinant kinase assay | phosphorylation in a recombinant kinase reaction (PhosTag SDS-PAGE, SNAP ligand fluorescence)
1 | p38β (protein) MSGPRAGFYRQELNKTVWEVPQRLQGLRPVGSGAYGSVCSAYDARLRQKVAVKKLSRPFQSLIHARRTYRELRLLKHLKHENVIGLLDVFTPATSIEDFSEVYLVTTLMGADLNNIVKCQALSDEHVQFLVYQLLRGLKYIHSAGIIHRDLKPSNVAVNEDCELRILDFGLARQADEEMTGYVATRWYRAPEIMLNWMHYNQTVDIWSVGCIMAELLQGKALFPGSDYIDQLKRIMEVVGTPSPEVLAKISSEHARTYIQSLPPMPQKDLSSIFRGANPLAIDLLGRMLVLDSDQRVSAAEALAHAYFSQYHDPEDEPEAEPYDESVEAKERTLEEWKELTYQEVLSFKPPEPPKPPGSLEIEQ | both p38α/β can phosphorylate NLRP1^DR in a recombinant kinase assay | 
2 | ZAKα kinase (wild-type) (protein) MSSLGASFVQIKFDDLQFFENCGGGSFGSVYRAKWISQDKEVAVKKLLKIEKEAEILSVLSHRNIIQFYGVILEPPNYGIVTEYASLGSLYDYINSNRSEEMDMDHIMTWATDVAKGMHYLHMEAPVKVIHRDLKSRNVVIAADGVLKICDFGASRFHNHTTHMSLVGTFPWMAPEVIQSLPVSETCDTYSYGVVLWEMLTREVPFKGLEGLQVAWLVVEKNERLTIPSSCPRSFAELLHQCWEADAKKRPSFKQIISILESMSNDTSLPDKCNSFLHNKAEWRCEIEATLERLKKLERDLSFKEQELKERERRLKMWEQKLTEQSNTPLLPSFEIGAWTEDDVYCWVQQLVRKGDSSAEMSVYASLFKENNITGKRLLLLEEEDLKDMGIVSKGHIIHFKSAIEKLTHDYINLFHFPPLIKDSGGEPEENEEKIVNLELVFGFHLKPGTGPQDCKWKMYMEMDGDEIAITYIKDVTFNTNLPDAEILKMTKPPFVMEKWIVGIAKSQTVECTVTYESDVRTPKSTKHVHSIQWSRTKPQDEVKAVQLAIQTLFTNSDGNPGSRSDSSADCQWLDTLRMRQIASNTSLQRSQSNPILGSPFFSHFDGQDSYAAAVRRPQVPIKYQQITPVNQSRSSSPTQYGLTKNFSSLHLNSRDSGFSSGNTDTSSERGRYSDRSRNKYGRGSISLNSSPRGRYSGKSQHSTPSRGRYPGKFYRVSQSALNPHQSPDFKRSPRDLHQPNTIPGMPLHPETDSRASEEDSKVSEGGWTKVEYRKKPHRPSPAKTNKERARGDHRGWRNF |  | recombinant ZAKα is sufficient to phosphorylate SNAP-tagged NLRP1^DR purified from bacteria
